In publication PMC5999394, “Design principles of a microtubule polymerase” (eLife, 2018):

Tests used:
[1] = molecular target: wild-type yeast microtubules (polymerized wild-type yeast αβ-tubulin) (S. cerevisiae) (UniProt P09733); assay: TIRF microscopy, fluorescence intensity of the Stu2-eGFP spot on the growing microtubule end; end intensity dynamic assay; 5-300 nM Stu2-eGFP (titration, hyperbolic fit; apparent) or 200 nM variant; 0.8 μM wild-type yeast tubulin; 30°C
[2] = molecular target: T1, wild-type yeast microtubules (polymerized wild-type yeast αβ-tubulin) (S. cerevisiae, UniProt P09733 1-447; P02557 1-457); assay: TIRF microscopy of Stu2-eGFP on dynamic microtubules (kymographs); axoneme-seeded unlabeled dynamic yeast microtubules on the cover slip; Stu2-eGFP variant (100-200 nM) with 0.5-0.8 μM unpolymerized yeast tubulin in imaging buffer (1X PEM, 50 µM GTP, 0.1 mg/mL BSA, antifade); 30°C; conditions: both partners purified
T1 construct: Tub1p (yeast α-tubulin), S. cerevisiae; Tub2p (yeast β-tubulin), S. cerevisiae; Polymer of m2; also called microtubule lattice; microtubule end
T1 sequence (P09733 whole entry, chain 1 of 2): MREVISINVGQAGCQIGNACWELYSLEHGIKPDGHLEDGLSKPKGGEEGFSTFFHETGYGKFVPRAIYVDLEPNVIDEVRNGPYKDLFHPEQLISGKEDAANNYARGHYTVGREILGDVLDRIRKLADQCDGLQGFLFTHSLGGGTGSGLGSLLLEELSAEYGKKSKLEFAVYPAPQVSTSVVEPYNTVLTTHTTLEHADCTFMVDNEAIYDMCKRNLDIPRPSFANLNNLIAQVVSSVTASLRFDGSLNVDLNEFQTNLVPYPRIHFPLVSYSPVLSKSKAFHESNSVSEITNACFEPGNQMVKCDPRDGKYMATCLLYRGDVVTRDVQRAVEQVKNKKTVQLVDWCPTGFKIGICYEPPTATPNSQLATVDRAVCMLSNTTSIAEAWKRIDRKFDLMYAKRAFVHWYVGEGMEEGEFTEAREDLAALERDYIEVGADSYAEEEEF
T1 sequence (P02557 whole entry, chain 2 of 2): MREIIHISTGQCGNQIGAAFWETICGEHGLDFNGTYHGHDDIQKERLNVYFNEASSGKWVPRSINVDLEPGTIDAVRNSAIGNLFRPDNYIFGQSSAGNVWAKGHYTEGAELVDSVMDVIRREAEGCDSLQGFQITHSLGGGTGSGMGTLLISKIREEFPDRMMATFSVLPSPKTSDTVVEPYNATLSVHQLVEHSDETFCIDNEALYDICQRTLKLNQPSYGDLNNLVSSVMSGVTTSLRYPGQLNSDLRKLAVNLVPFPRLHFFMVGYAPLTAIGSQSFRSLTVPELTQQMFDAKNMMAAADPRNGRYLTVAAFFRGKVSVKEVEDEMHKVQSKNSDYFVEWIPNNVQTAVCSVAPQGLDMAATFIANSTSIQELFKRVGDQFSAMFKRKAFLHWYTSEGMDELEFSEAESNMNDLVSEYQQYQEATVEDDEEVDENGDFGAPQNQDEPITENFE

[3] = molecular target: T1, wild-type yeast microtubules …; assay: single-molecule TIRF microscopy, residence time on the growing microtubule end; 5 nM Stu2-eGFP variant with 1-1.5 µM unlabeled wild-type yeast tubulin; 100 ms streaming; one-phase exponential fit of the dwell times; 30°C; conditions: both partners purified
[4] = molecular target: T1, wild-type yeast microtubules …; assay: TIRF microscopy, fluorescence intensity of the Stu2-eGFP spot on the growing microtubule end; end intensity dynamic assay; 5-300 nM Stu2-eGFP (titration, hyperbolic fit; apparent) or 200 nM variant; 0.8 μM wild-type yeast tubulin; 30°C; conditions: both partners purified

Chain of wild-type yeast microtubules (polymerized wild-type yeast αβ-tubulin) (S. cerevisiae) (P09733 whole entry, chain 1 of 2): as the sequence (P09733 whole entry, chain 1 of 2) above
Chain of wild-type yeast microtubules (polymerized wild-type yeast αβ-tubulin) (S. cerevisiae) (P02557 whole entry, chain 2 of 2, further chain): as the sequence (P02557 whole entry, chain 2 of 2) above

Molecule: Stu2(TOG2-TOG2)-eGFP (from UniProt P46675 1-888)
- relative amount of polymerase on the microtubule end (wild type = one) (relative to wild type) [1]: 1

B1: 'doubly dead' Stu2(TOG1*-TOG2*)-eGFP (natural protein, S. cerevisiae, UniProt P46675 1-888, looked up)
chain: MSGEEEVDYTTLPLEERLTYKLWKARLEAYKELNQLFRNSVGDISRDDNIQIYWRDPTLFAQYITDSNVVAQEQAIVALNSLIDAFASSSLKNAHNITLISTWTPLLVEKGLTSSRATTKTQSMSCILSLCGLDTSITQSVELVIPFFEKKLPKLIAAAANCVYELMAAFGLTNVNVQTFLPELLKHVPQLAGHGDRNVASQTMNLIVEIYKVTGNNSDLLEEILFKKLKPIQVKDLHKLFAKVGDEPSSSKMLFEWEKRELEKKRSQEEEARKRKSILSNDEGEYQIDKDGDTLMGMETDMPPSKQQSGVQIDTFSMLPEETILDKLPKDFQERITSSKWKDRVEALEEFWDSVLSQTKKLKSTSQNYSNLLGIYGHIIQKDANIQAVALAAQSVELICDKLKTPGFSKDYVSLVFTPLLDRTKEKKPSVIEAIRKALLTICKYYDPLASSGRNEDMLKDILEHMKHKTPQIRMECTQLFNASMKEEKDGYSTLQRYLKDEVVPIVIQIVNDTQPAIATIGFESFAILIKIFGMNTFVKTLEHLDNLKRKKIEETVKTLPNFSIASGSTHSTIETNKQTGPMENKFLLKKSSVLPSKRVASSPLRNDNKSKVNPIGSVASASKPSMVAANNKSRVLLTSKSLATPKNVVANSTDKNEKLIEEYKYRLQKLQNDEMIWTKERQSLLEKMNNTENYKIEMIKENEMLREQLKEAQSKLNEKNIQLRSKEIDVNKLSDRVLSLENELRNMEIELDRNKKRNDTNLQSMGTISSYSIPSSTVSSNYGVKSLSSALPFKEEEDVRRKEDVNYERRSSESIGDLPHRVNSLNIRPYRKNGTGVSSVSDDLDIDFNDSFASEESYKRAAAVTSTLKARIEKMKAKSRREGTTRT
notes: Stu2, S. cerevisiae, fully dimeric (888) background; also called double dead Stu2; source: E. coli Arctic Express, purified (His60 Superflow, Strep-Tactin); not shown: eGFP, C-terminal, kept
- binding result [2]: binds

B2: Stu2(TOG1*-TOG2)-eGFP (R200A) (natural protein, S. cerevisiae, UniProt P46675 1-888, looked up)
chain: MSGEEEVDYTTLPLEERLTYKLWKARLEAYKELNQLFRNSVGDISRDDNIQIYWRDPTLFAQYITDSNVVAQEQAIVALNSLIDAFASSSLKNAHNITLISTWTPLLVEKGLTSSRATTKTQSMSCILSLCGLDTSITQSVELVIPFFEKKLPKLIAAAANCVYELMAAFGLTNVNVQTFLPELLKHVPQLAGHGDRNVASQTMNLIVEIYKVTGNNSDLLEEILFKKLKPIQVKDLHKLFAKVGDEPSSSKMLFEWEKRELEKKRSQEEEARKRKSILSNDEGEYQIDKDGDTLMGMETDMPPSKQQSGVQIDTFSMLPEETILDKLPKDFQERITSSKWKDRVEALEEFWDSVLSQTKKLKSTSQNYSNLLGIYGHIIQKDANIQAVALAAQSVELICDKLKTPGFSKDYVSLVFTPLLDRTKEKKPSVIEAIRKALLTICKYYDPLASSGRNEDMLKDILEHMKHKTPQIRMECTQLFNASMKEEKDGYSTLQRYLKDEVVPIVIQIVNDTQPAIRTIGFESFAILIKIFGMNTFVKTLEHLDNLKRKKIEETVKTLPNFSIASGSTHSTIETNKQTGPMENKFLLKKSSVLPSKRVASSPLRNDNKSKVNPIGSVASASKPSMVAANNKSRVLLTSKSLATPKNVVANSTDKNEKLIEEYKYRLQKLQNDEMIWTKERQSLLEKMNNTENYKIEMIKENEMLREQLKEAQSKLNEKNIQLRSKEIDVNKLSDRVLSLENELRNMEIELDRNKKRNDTNLQSMGTISSYSIPSSTVSSNYGVKSLSSALPFKEEEDVRRKEDVNYERRSSESIGDLPHRVNSLNIRPYRKNGTGVSSVSDDLDIDFNDSFASEESYKRAAAVTSTLKARIEKMKAKSRREGTTRT
notes: Stu2, S. cerevisiae, fully dimeric (888) background; also called TOG1* (R200A); source: E. coli Arctic Express, purified (His60 Superflow, Strep-Tactin); not shown: eGFP, C-terminal, kept
- characteristic residence time on the growing microtubule end [3]: 1.7 s

B3: Stu2(TOG1-TOG2*)-eGFP (R519A) (natural protein, S. cerevisiae, UniProt P46675 1-888, looked up)
chain: MSGEEEVDYTTLPLEERLTYKLWKARLEAYKELNQLFRNSVGDISRDDNIQIYWRDPTLFAQYITDSNVVAQEQAIVALNSLIDAFASSSLKNAHNITLISTWTPLLVEKGLTSSRATTKTQSMSCILSLCGLDTSITQSVELVIPFFEKKLPKLIAAAANCVYELMAAFGLTNVNVQTFLPELLKHVPQLAGHGDRNVRSQTMNLIVEIYKVTGNNSDLLEEILFKKLKPIQVKDLHKLFAKVGDEPSSSKMLFEWEKRELEKKRSQEEEARKRKSILSNDEGEYQIDKDGDTLMGMETDMPPSKQQSGVQIDTFSMLPEETILDKLPKDFQERITSSKWKDRVEALEEFWDSVLSQTKKLKSTSQNYSNLLGIYGHIIQKDANIQAVALAAQSVELICDKLKTPGFSKDYVSLVFTPLLDRTKEKKPSVIEAIRKALLTICKYYDPLASSGRNEDMLKDILEHMKHKTPQIRMECTQLFNASMKEEKDGYSTLQRYLKDEVVPIVIQIVNDTQPAIATIGFESFAILIKIFGMNTFVKTLEHLDNLKRKKIEETVKTLPNFSIASGSTHSTIETNKQTGPMENKFLLKKSSVLPSKRVASSPLRNDNKSKVNPIGSVASASKPSMVAANNKSRVLLTSKSLATPKNVVANSTDKNEKLIEEYKYRLQKLQNDEMIWTKERQSLLEKMNNTENYKIEMIKENEMLREQLKEAQSKLNEKNIQLRSKEIDVNKLSDRVLSLENELRNMEIELDRNKKRNDTNLQSMGTISSYSIPSSTVSSNYGVKSLSSALPFKEEEDVRRKEDVNYERRSSESIGDLPHRVNSLNIRPYRKNGTGVSSVSDDLDIDFNDSFASEESYKRAAAVTSTLKARIEKMKAKSRREGTTRT
notes: Stu2, S. cerevisiae, fully dimeric (888) background; also called TOG2* (R519A); source: E. coli Arctic Express, purified (His60 Superflow, Strep-Tactin); not shown: eGFP, C-terminal, kept
- characteristic residence time on the growing microtubule end [3]: 4 s
- relative amount of polymerase on the microtubule end (wild type = one) [4]: 0.5 relative to wild type

B4: Stu2(TOG2-TOG2*)-eGFP (other)
chain: MSGEEEVDYTTEETILDKLPKDFQERITSSKWKDRVEALEEFWDSVLSQTKKLKSTSQNYSNLLGIYGHIIQKDANIQAVALAAQSVELICDKLKTPGFSKDYVSLVFTPLLDRTKEKKPSVIEAIRKALLTICKYYDPLASSGRNEDMLKDILEHMKHKTPQIRMECTQLFNASMKEEKDGYSTLQRYLKDEVVPIVIQIVNDTQPAIRTIGFESFAILIKIFGMNTFVKTLEHLDNLKRKKIEETVKTDEPSSSKMLFEWEKRELEKKRSQEEEARKRKSILSNDEGEYQIDKDGDTLMGMETDMPPSKQQSGVQIDTFSMLPEETILDKLPKDFQERITSSKWKDRVEALEEFWDSVLSQTKKLKSTSQNYSNLLGIYGHIIQKDANIQAVALAAQSVELICDKLKTPGFSKDYVSLVFTPLLDRTKEKKPSVIEAIRKALLTICKYYDPLASSGRNEDMLKDILEHMKHKTPQIRMECTQLFNASMKEEKDGYSTLQRYLKDEVVPIVIQIVNDTQPAIATIGFESFAILIKIFGMNTFVKTLEHLDNLKRKKIEETVKTLPNFSIASGSTHSTIETNKQTGPMENKFLLKKSSVLPSKRVASSPLRNDNKSKVNPIGSVASASKPSMVAANNKSRVLLTSKSLATPKNVVANSTDKNEKLIEEYKYRLQKLQNDEMIWTKERQSLLEKMNNTENYKIEMIKENEMLREQLKEAQSKLNEKNIQLRSKEIDVNKLSDRVLSLENELRNMEIELDRNKKRNDTNLQSMGTISSYSIPSSTVSSNYGVKSLSSALPFKEEEDVRRKEDVNYERRSSESIGDLPHRVNSLNIRPYRKNGTGVSSVSDDLDIDFNDSFASEESYKRAAAVTSTLKARIEKMKAKSRREGTTRT
- characteristic residence time on the growing microtubule end [3]: 3.9 s
- relative amount of polymerase on the microtubule end (wild type = one) [4]: 0.5 relative to wild type
